What was measured:
[1] = target: taxol-stabilized porcine brain GDP-microtubules (porcine) (UniProt P02550)
[2] = target: taxol-stabilized porcine brain GDP-microtubules (porcine) (UniProt P02550); remark: listed apart in the source

Chain of UniProt P02550 (P02550 46-451): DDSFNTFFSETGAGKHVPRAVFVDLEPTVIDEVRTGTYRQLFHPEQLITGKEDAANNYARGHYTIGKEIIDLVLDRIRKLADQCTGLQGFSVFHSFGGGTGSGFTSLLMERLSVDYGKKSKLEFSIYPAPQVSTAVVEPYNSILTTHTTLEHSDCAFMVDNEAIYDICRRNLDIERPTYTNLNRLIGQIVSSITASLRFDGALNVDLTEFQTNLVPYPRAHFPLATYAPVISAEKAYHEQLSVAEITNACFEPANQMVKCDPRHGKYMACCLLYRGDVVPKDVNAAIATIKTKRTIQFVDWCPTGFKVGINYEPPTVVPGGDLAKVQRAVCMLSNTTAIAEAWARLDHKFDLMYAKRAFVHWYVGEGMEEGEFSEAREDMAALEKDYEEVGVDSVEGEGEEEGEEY

Row | K (1/2,MT) of the microtubule-stimulated ATPase activity [1] | microtubule detachment rate under load [2] | Substance
1 | 4.2 µM | 3.9 s⁻¹ | GcKIF5A (enzyme)
2 | 2.2 µM | 1.3 s⁻¹ | MmKIF5A (from UniProt P33175 1-1027) (enzyme)

Source: publication doi:10.1101/2025.05.04.652084
